Measured values reported in paper PMC9482650, “Quantitative fragmentomics allow affinity mapping of interactomes” (Nature Communications, 2022).

T1: APBA3_1, O96018
T1 sequence (O96018 389-490, limits assumed, looked up): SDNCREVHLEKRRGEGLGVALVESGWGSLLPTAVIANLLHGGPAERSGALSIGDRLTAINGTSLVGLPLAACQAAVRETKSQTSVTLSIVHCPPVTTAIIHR

T2: DVL3, Q92997
T2 sequence (Q92997 244-331, limits assumed, looked up): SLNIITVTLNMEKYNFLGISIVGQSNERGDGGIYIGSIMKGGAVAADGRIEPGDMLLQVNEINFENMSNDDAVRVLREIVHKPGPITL

T3: FRMPD1, Q5SYB0
T3 sequence (Q5SYB0 52-145, limits assumed, looked up): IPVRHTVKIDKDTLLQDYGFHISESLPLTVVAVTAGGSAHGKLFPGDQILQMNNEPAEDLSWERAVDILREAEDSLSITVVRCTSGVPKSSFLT

T4: GRIP1_4, Q9Y3R0
T4 sequence (Q9Y3R0 467-571, limits assumed, looked up): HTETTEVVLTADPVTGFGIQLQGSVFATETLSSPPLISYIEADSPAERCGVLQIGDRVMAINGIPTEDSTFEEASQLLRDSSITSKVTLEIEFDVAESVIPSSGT

T5: HTRA4, P83105
T5 sequence (P83105 378-476, limits assumed, looked up): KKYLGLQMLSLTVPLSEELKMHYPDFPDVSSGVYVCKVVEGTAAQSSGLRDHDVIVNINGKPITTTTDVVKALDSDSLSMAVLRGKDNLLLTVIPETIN

T6: LIN7B, Q9HAP6
T6 sequence (Q9HAP6 88-185, limits assumed, looked up): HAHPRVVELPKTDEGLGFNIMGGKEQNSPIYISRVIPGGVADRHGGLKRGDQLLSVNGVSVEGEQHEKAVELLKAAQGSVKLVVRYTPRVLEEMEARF

T7: LIN7C, Q9NUP9
T7 sequence (Q9NUP9 88-185, limits assumed, looked up): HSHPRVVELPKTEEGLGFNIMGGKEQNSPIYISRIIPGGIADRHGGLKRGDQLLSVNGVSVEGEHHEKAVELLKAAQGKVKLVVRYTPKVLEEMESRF

T8: LNX2_3, Q8N448
T8 sequence (Q8N448 463-564, limits assumed, looked up): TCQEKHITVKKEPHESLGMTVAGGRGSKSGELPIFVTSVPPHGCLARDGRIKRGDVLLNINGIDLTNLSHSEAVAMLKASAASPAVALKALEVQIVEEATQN

T9: MPP2, Q14168
T9 sequence (Q14168 180-250, limits assumed, looked up): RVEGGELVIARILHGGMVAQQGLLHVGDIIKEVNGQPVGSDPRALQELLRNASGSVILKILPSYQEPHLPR

T10: PDZD2_2, O15018
T10 sequence (O15018 329-429, limits assumed, looked up): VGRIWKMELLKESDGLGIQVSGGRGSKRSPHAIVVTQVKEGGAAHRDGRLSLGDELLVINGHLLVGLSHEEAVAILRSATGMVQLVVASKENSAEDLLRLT

T11: PDZD7_3, Q9H5P4
T11 sequence (Q9H5P4 857-944, limits assumed, looked up): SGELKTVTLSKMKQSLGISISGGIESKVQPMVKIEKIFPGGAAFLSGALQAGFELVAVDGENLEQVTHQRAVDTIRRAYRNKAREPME


Legend:
Test in all cases: holdup assay
Design in all cases: key: below the threshold = too weak to quantify, mostly under pKd 3.1 to 4
Conditions in all cases: plain residues with an end cap or a label only (N-terminal biotin on a linker: ado-ado)
APBA3_1, O96018 = target: T1, APBA3_1, O96018
ARHGEF12, Q9NZN5-2 = target: ARHGEF12, Q9NZN5-2
Sequence of ARHGEF12, Q9NZN5-2 (Q9NZN5 other isoform, or with tags, fused parts or gaps): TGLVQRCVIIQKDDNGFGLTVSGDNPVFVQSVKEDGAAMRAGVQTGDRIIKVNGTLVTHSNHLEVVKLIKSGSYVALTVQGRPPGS

DLG4_1, P78352 = target: DLG4_1, P78352
Sequence of DLG4_1, P78352 (P78352 62-152): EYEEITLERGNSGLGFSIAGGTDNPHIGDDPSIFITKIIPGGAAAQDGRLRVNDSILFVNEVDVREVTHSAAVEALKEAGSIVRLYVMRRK

DVL3, Q92997 = target: T2, DVL3, Q92997
FRMPD1, Q5SYB0 = target: T3, FRMPD1, Q5SYB0
FRMPD2_1, Q68DX3 = target: FRMPD2_1, Q68DX3
Sequence of FRMPD2_1, Q68DX3 (Q68DX3 770-861): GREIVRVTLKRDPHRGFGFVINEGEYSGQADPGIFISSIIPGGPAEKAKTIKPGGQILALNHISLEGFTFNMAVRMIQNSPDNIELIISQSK

GRID2IP_1, A4D2P6 = target: GRID2IP_1, A4D2P6
Sequence of GRID2IP_1, A4D2P6 (A4D2P6 1-87): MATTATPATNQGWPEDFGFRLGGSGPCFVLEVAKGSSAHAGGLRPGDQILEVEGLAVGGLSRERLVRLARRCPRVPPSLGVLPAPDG

GRIP1_4, Q9Y3R0 = target: T4, GRIP1_4, Q9Y3R0
HTRA4, P83105 = target: T5, HTRA4, P83105
IL16_4, Q14005 = target: IL16_4, Q14005
Sequence of IL16_4, Q14005 (Q14005 1229-1329): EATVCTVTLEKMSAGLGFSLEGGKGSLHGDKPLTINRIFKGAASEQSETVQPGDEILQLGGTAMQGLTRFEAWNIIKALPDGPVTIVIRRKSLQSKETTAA

Inadl_1, Q8NI35 = target: Inadl_1, Q8NI35
Sequence of Inadl_1, Q8NI35 (Q8NI35 113-229): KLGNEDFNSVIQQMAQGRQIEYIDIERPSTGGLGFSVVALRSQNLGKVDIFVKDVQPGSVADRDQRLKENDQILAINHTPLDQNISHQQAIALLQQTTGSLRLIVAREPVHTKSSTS

Inadl_3, Q8NI35 = target: Inadl_3, Q8NI35
Sequence of Inadl_3, Q8NI35 (Q8NI35 359-469): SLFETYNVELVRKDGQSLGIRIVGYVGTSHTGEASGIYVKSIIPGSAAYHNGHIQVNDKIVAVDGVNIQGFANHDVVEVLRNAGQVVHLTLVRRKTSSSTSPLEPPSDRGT

Inadl_6, Q8NI35 = target: Inadl_6, Q8NI35
Sequence of Inadl_6, Q8NI35 (Q8NI35 1058-1167): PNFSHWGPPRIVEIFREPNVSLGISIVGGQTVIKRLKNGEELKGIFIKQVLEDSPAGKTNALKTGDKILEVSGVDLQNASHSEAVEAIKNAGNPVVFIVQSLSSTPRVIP

Inadl_8, Q8NI35 = target: Inadl_8, Q8NI35
Sequence of Inadl_8, Q8NI35 (Q8NI35 1425-1530): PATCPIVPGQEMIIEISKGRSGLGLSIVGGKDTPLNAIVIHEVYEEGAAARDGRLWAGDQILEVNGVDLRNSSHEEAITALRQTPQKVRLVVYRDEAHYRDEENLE

Inadl_9, Q8NI35 = target: Inadl_9, Q8NI35
Sequence of Inadl_9, Q8NI35 (Q8NI35 1530-1615): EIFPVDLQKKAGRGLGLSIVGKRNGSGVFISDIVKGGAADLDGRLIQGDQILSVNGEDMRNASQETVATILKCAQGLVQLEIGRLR

LIN7B, Q9HAP6 = target: T6, LIN7B, Q9HAP6
LIN7C, Q9NUP9 = target: T7, LIN7C, Q9NUP9
LNX1_3, Q8TBB1 = target: LNX1_3, Q8TBB1
Sequence of LNX1_3, Q8TBB1 (Q8TBB1 500-596): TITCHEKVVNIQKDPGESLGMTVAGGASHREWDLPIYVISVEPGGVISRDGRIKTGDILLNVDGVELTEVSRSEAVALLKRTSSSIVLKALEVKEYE

LNX2_3, Q8N448 = target: T8, LNX2_3, Q8N448
MAGI2_5, Q86UL8 = target: MAGI2_5, Q86UL8
Sequence of MAGI2_5, Q86UL8 (Q86UL8 915-1017): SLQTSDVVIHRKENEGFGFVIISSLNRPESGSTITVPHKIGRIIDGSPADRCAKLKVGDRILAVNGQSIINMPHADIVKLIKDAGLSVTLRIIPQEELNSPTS

MAST2, Q6P0Q8 = target: MAST2, Q6P0Q8
Sequence of MAST2, Q6P0Q8 (Q6P0Q8 1099-1202): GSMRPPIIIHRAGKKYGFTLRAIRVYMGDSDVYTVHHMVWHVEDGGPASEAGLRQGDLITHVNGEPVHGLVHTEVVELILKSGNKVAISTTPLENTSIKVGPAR

MPP2, Q14168 = target: T9, MPP2, Q14168
NHERF4_1, Q86UT5-2 = target: NHERF4_1, Q86UT5-2
Sequence of NHERF4_1, Q86UT5-2 (Q86UT5 other isoform, or with tags, fused parts or gaps): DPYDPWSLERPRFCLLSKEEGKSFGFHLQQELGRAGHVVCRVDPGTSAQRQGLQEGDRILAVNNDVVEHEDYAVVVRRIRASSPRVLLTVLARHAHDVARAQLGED

NHERF4_4, Q86UT5 = target: NHERF4_4, Q86UT5
Sequence of NHERF4_4, Q86UT5 (Q86UT5 464-550): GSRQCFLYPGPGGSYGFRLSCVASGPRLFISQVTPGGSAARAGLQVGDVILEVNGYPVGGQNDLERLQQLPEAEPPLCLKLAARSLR

PDZD2_2, O15018 = target: T10, PDZD2_2, O15018
PDZD7_3, Q9H5P4 = target: T11, PDZD7_3, Q9H5P4

| Binder | pKd (APBA3_1, O96018) | pKd (ARHGEF12, Q9NZN5-2) | pKd (DLG4_1, P78352) | pKd (DVL3, Q92997) | pKd (FRMPD1, Q5SYB0) | pKd (FRMPD2_1, Q68DX3) | pKd (GRID2IP_1, A4D2P6) | pKd (GRIP1_4, Q9Y3R0) | pKd (HTRA4, P83105) | pKd (IL16_4, Q14005) | pKd (Inadl_1, Q8NI35) | pKd (Inadl_3, Q8NI35) | pKd (Inadl_6, Q8NI35) | pKd (Inadl_8, Q8NI35) | pKd (Inadl_9, Q8NI35) | pKd (LIN7B, Q9HAP6) | pKd (LIN7C, Q9NUP9) | pKd (LNX1_3, Q8TBB1) | pKd (LNX2_3, Q8N448) | pKd (MAGI2_5, Q86UL8) | further results |
| --- | --- | --- | --- | --- | --- | --- | --- | --- | --- | --- | --- | --- | --- | --- | --- | --- | --- | --- | --- | --- | --- |
| EALLQMESVA [CAVIN3, Q969G5] | below the threshold | 3.63 | below the threshold | below the threshold | below the threshold | 3.62 | below the threshold | below the threshold | below the threshold | below the threshold | below the threshold | below the threshold | below the threshold | below the threshold | below the threshold | 3.57 | below the threshold | below the threshold | below the threshold | below the threshold | pKd (MAST2, Q6P0Q8): below the threshold; pKd (MPP2, Q14168): below the threshold; pKd (NHERF4_1, Q86UT5-2): 3.59; pKd (NHERF4_4, Q86UT5): below the threshold; pKd (PDZD2_2, O15018): below the threshold; pKd (PDZD7_3, Q9H5P4): below the threshold |
| EKKTLIGIKL [GOT1L1, Q8NHS2] | below the threshold | 3.64 | below the threshold | below the threshold | below the threshold | 3.88 | below the threshold | below the threshold | below the threshold | below the threshold | below the threshold | below the threshold | below the threshold | below the threshold | below the threshold | below the threshold | below the threshold | below the threshold | below the threshold | below the threshold | pKd (MAST2, Q6P0Q8): 4.66; pKd (MPP2, Q14168): below the threshold; pKd (NHERF4_1, Q86UT5-2): 3.81; pKd (NHERF4_4, Q86UT5): 3.5; pKd (PDZD2_2, O15018): below the threshold; pKd (PDZD7_3, Q9H5P4): below the threshold |
| IKAIVDLTGL [TRAF2, Q12933] | below the threshold | 3.5 | below the threshold | below the threshold | below the threshold | below the threshold | below the threshold | below the threshold | below the threshold | below the threshold | below the threshold | below the threshold | below the threshold | below the threshold | below the threshold | below the threshold | below the threshold | below the threshold | below the threshold | below the threshold | pKd (MAST2, Q6P0Q8): 5.48; pKd (MPP2, Q14168): below the threshold; pKd (NHERF4_1, Q86UT5-2): 3.76; pKd (NHERF4_4, Q86UT5): below the threshold; pKd (PDZD2_2, O15018): below the threshold; pKd (PDZD7_3, Q9H5P4): below the threshold |
| SARSRLSSNL [HCN2, Q9UL51] | below the threshold | 4.66 | below the threshold | below the threshold | below the threshold | below the threshold | below the threshold | below the threshold | below the threshold | below the threshold | below the threshold | below the threshold | below the threshold | below the threshold | below the threshold | below the threshold | below the threshold | below the threshold | below the threshold | below the threshold | pKd (MAST2, Q6P0Q8): 5.4; pKd (MPP2, Q14168): below the threshold; pKd (NHERF4_1, Q86UT5-2): 3.96; pKd (NHERF4_4, Q86UT5): below the threshold; pKd (PDZD2_2, O15018): 3.74; pKd (PDZD7_3, Q9H5P4): 4.09 |
| GSGAVEMESV [AQP6, Q13520] | below the threshold | below the threshold | below the threshold | below the threshold | below the threshold | below the threshold | below the threshold | below the threshold | 3.88 | below the threshold | below the threshold | below the threshold | below the threshold | below the threshold | below the threshold | below the threshold | below the threshold | below the threshold | below the threshold | below the threshold | pKd (MAST2, Q6P0Q8): 4.03; pKd (MPP2, Q14168): below the threshold; pKd (NHERF4_1, Q86UT5-2): below the threshold; pKd (NHERF4_4, Q86UT5): below the threshold; pKd (PDZD2_2, O15018): 3.7; pKd (PDZD7_3, Q9H5P4): below the threshold |
